For this assay, the target named is standard human 20S proteasome, immunopurified from HEK293-EBNA cells (human). Description: mass photometry.

Values joined by “and” are separate entries in the source; they are usually repeats but may differ in a detail not shown here. Equal values may be shown once.

Regarding “recombinant human PA200 (proteasome activator 200) (from UniProt Q14997 1-1843) (natural protein)”, the percent of total 20S bound at a PA200:20S molar ratio of 8 was above 60%; the stoichiometry N (PA200 per 20S) is 1 and 2.

These data come from article doi:10.1101/2024.12.17.628836.
